Source: patent US12702692B2, “Therapeutic use of calcium-activated chloride channel peptide activator” (CENTRE NATIONAL DE LA RECHERCHE SCIENTIFIQUE, priority 2020, dated 2026)

Molecular target: T1, TMEM16A (Mus musculus, UniProt Q8BHY3)
T1 construct: expressed in transfected cells; host or cells: HEK293T
T1 sequence (Q8BHY3 1-960): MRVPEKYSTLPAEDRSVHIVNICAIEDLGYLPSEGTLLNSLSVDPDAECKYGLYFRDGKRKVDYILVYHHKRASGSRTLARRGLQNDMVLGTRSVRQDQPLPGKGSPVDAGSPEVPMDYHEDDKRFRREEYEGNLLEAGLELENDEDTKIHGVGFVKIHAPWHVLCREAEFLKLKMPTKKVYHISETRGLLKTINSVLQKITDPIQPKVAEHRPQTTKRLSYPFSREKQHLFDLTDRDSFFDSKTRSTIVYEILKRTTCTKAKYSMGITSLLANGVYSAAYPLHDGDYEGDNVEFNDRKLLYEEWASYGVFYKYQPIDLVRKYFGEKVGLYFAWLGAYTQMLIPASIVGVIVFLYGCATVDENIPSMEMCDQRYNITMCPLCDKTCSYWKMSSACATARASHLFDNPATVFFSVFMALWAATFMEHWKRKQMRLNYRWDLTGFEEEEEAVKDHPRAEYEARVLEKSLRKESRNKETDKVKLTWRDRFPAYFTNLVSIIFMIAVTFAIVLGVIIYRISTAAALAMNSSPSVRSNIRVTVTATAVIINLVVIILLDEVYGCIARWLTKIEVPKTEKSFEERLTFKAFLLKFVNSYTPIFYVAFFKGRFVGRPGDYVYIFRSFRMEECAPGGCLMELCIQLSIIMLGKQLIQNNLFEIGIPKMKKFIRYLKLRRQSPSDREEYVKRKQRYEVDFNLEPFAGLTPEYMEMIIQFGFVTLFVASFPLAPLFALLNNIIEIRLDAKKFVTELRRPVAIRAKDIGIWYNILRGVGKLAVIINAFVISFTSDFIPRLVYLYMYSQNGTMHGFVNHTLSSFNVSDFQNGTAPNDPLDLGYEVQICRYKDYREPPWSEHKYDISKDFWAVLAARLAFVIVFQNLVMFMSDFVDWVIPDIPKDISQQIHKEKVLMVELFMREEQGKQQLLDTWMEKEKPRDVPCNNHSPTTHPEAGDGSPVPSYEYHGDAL
Experiment: Whole-cell patch-clamp of HEK293T cells expressing TMEM16A
Format: cell-based
Method: mTMEM16A (kindly provided by Dr Lily Yeh Jan) and hKCNE1 cDNA were subcloned in pIRES2eGFP, pXOOM, pcDNA3.1, pCDNA3.1-GFP and pCMV-HA vectors. Truncations and mutations on KCNE1 were generated by PCR. For SiMPull experiments, HA-tags were fused to the N-terminus of sequences, whereas GFP-tags were fused to C-terminal part. HEK293T and PCT cells were transiently co-transfected using Lipofectamine 2000 or the calcium phosphate method with a total amount of 1 and 3.5 μg of DNA, respectively, and seeded on 18 mm diameter coverslips. HEK cells were maintained in DMEM with 5% FBS on poly-L-lysine-coated glass coverslips in 12 well plates. PCT cells from wild type and knock-out mice were microdissected as described previously and maintained in F12 (Gibco) on collagen-coated glass coverslips.
HEK293T and PCT cell electrophysiology was performed 24-48 h after transfection. For whole-cell patch-clamp experiments cells were recorded in a bath solution containing (in mM) 150 NaCl, 5 KCl, 2 CaCl2 and 10 HEPES, pH 7.4 and 0.05% BSA. The glass pipettes (2-5 MΩ of resistance) were filled with (in mM) 5 NaCl, 135 CsCl, 2 MgCl2, 5 EGTA, 10 HEPES, pH 7.3. Cells were recorded either after incubation of 30 min with the peptide or during perfusion with the peptide. Total calcium concentration was calculated with Maxchelator (maxchelator.standford.edu) for a temperature of 20° C. HEK293T and PCT cells were recorded at room temperature in voltage-clamp mode using an Axopatch 200A (Molecular Devices) amplifier. Signals were filtered at 10 kHz and digitalized at 20 kHz. Whole-cell currents were elicited by voltage-ramps (from −100 to +100 mV, 1 s) and I-V stimulation pulses (from −100 to +100 mV in 20 mV increments, 1 s each pulse), holding the cells at −80 mV. Current densities were measured at +100 mV. Cell recordings, data acquisition and analysis of electrophysiology experiments were performed using pClamp software (Molecular Devices).

LARRSPRSSDGKL (SEQ ID NO: 2) (amino acid residues between positions 30 to 42 of the human KCNE1 protein sequence) [N13ter]
current density elicited by peptide at +100 mV (100 μM peptide, HEK293T cells expressing TMEM16A alone): 15.48±3.25 pA/pF
potency on TMEM16A compared with rat N13 peptide (100 μM, HEK293T expressing TMEM16A and Xenopus oocytes (FIG. 9)): more potent
effect of peptide application on TMEM16A current (HEK293T cells expressing TMEM16A alone, 100 μM for Nter13, S38G and rat peptides): induces TMEM16A current properties
